Laboratory results: PMC10421056 (Science Advances, 2023)

Target: His-tagged histone H2B.9 (Arabidopsis, UniProt O23629 1-150)
Experiment: reconstitution of histone heterodimers

His-tagged histone H2B.9, sequence (O23629 whole entry): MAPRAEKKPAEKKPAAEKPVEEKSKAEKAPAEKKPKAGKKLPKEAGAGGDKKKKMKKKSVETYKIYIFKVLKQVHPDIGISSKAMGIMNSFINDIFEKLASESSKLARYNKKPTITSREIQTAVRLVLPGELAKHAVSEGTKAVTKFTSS

Row | binding result | Binder
1 | binds | His-tagged histone H2A.Z.9 (natural protein) not shown
2 | binds | His-tagged histone H2A.X.3 (natural protein) MSSGAGSGTTKGGRGKPKATKSVSRSSKAGLQFPVGRIARFLKAGKYAERVGAGAPVYLSAVLEYLAAEVLELAGNAARDNKKTRIVPRHIQLAVRNDEELSKLLGSVTIANGGVLPNIHQTLLPSKVGKNKGDIGSASQEF
